From patent publication US20070172906A1 (BIOSITE, published 2007)

Target: T1, Human latent protein C (Enzyme Research Labs, Catalog # HPC 1001) (human, UniProt P04070 43-197; P04070 200-461)
T1 construct: Bought protein; It was biotinylated for panning and ELISA
Assay: method not stated

T1 sequence (P04070 43-197, form in doubt, chain 1 of 2): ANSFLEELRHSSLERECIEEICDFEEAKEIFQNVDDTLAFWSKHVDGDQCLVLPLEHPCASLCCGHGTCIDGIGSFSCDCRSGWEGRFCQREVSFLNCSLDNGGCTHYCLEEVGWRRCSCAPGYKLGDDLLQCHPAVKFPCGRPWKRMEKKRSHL
T1 sequence (P04070 200-461, form in doubt, chain 2 of 2): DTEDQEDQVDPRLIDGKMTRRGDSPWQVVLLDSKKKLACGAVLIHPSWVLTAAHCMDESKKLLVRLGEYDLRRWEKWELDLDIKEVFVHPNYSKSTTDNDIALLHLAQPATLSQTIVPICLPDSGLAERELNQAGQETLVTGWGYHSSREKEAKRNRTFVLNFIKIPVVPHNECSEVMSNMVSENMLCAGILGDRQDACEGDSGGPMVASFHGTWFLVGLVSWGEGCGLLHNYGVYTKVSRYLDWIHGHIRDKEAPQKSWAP

| Binder | Ka [M⁻¹] |
| --- | --- |
| Z1XM01701 (antibody, V domains shown, It was subcloned into a pBR322 expression vector, expressed, purified and biotinylated; also called SE61z1zm-01071) VH: EVMLVESGGGLVKPGGSLKLSCAASGFTFSNYAMSWVRQTPAKRLEWVATISGGGGNTYYPDSVKGRFTISRDNAKNTLYLQMSSLRSEDTALYYCARHPNRFETAVDYWGQGTSVIVSS VL: QIVLTQSPAILSASPGEKVTMTCRASSSVSSVHWYQQKPGSSPKPWIYATSNLASGVPTRFSGGGSGTSYSLTISRVEAEDAATYSCQQWSSDPPTFGGGTKLEIK | ≥ 1e+10 |
| Z3XM01011 (antibody, V domains shown, Mouse monoclonal antibody from the same Fab phage library after one more round of panning, subcloned into a pBR322 expression vector) VH: EVQLQQSGPGLVEPSQSLSITCTVSGFSLRSYGVHWVRQSPRKGLEWLGGIWSGGRIDYNAAYISRLTINKDNSKSQVFFKMNSLQADDTAIYYCVRKAIDLGDYYGMDYWGQGTSVTVSS VL: DIVMTQFSQILSTSVGDRVSITCKASQDVGTAVAWYQQKPGQSPKLLIYWASTRHTGVPGRFTGSGSGTDFTLTIISVQSEDLADYFCQQYSSYPTFGGGTKLEIK | ≥ 1e+10 |
